For one substance, ECL signal results are on record in US20180355043A1.

Holding throughout (assay): MSD ECL; antigen coated; protocol of Example 3
Assay [1] deals with DR4G115 (HLA DPB4:01, peptide LCAP) (human).
The target of assay [2] is DR4G99: Human HLA-DRA1*01:02/DRB1*01:01 ECD with collagen peptide CII_1236-1249 (human).
Assay [3] has as its target DR4G117: Human HLA-DRA1*01:02/DRB1*03:01 ECD with Collagen II peptide CII_1236-1249 (human).
The target of assay [4] is DR4G86: Human HLA-DRA1*01:02/DRB1*04:01 ECD with CLIP peptide (human).
Assay [5] deals with DR4G143: Human HLA-DRA1*01:02/DRB1*04:01 ECD_VimentineL70A (human).
The target in assay [6] is DR4G146 (HLA DQB2:01, peptide CLIP) (human).
Assay [7] addresses DR4G142: Human HLA-DRA1*01:02/DRB1*03:01 ECD_VimentineL70A (human).
Assay [8] addresses DR4G110: Human HLA-DRA1*01:02/DRB1*04:01 ECD with aggrecan peptide N1 (human).
In assay [9] the target is DR4G101: Human HLA-DRA1*01:02/DRB1*04:02 ECD with collagen II peptide CII_257-273 (human).
Assay [10] concerns the target DR4G96: Human HLA-DRA1*01:02/DRB1*01:01 ECD with CLIP peptide (human).
Assay [11] deals with DR4G102: Human HLA-DRA1*01:02/DRB1*01:01 ECD with collagen II peptide CII_257-273 (human).
Assay [12] has as its target DR4G112: Human HLA-DQA1*01:02/DQB1*06:02 ECD with PLP peptide PLP_178-186 (human).
For assay [13], the target named is DR4G97: Human HLA-DRA1*01:02/DRB1*15:01 ECD with collagen II peptide CII_1236-1249 (human).
Assay [14] deals with DR4G98: Human HLA-DRA1*01:02/DRB1*04:02 ECD with collagen II peptide CII_1236-1249 (human).
Assay [15] has as its target DR4G107 (HLA DPB4:01, peptide CLIP) (human).
The target of assay [16] is DR4G145 (HLA DQB2:01, peptide CLIP) (human).
In assay [17] the target is DR4G92: Human HLA-DRA1*01:02/DRB1*04:01 ECD with collagen II peptide CII_257-273 (human).

DR4G115 (HLA DPB4:01, peptide LCAP) (human), sequence (P20036 29-222, chain 1 of 2): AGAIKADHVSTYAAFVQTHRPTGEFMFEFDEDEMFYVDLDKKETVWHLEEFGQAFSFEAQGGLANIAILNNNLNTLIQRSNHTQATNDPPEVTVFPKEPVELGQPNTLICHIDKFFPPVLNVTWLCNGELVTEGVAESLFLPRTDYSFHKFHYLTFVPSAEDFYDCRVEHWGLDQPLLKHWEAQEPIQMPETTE
DR4G115 (HLA DPB4:01, peptide LCAP) (human), sequence (P04440 30-225, chain 2 of 2, further chain): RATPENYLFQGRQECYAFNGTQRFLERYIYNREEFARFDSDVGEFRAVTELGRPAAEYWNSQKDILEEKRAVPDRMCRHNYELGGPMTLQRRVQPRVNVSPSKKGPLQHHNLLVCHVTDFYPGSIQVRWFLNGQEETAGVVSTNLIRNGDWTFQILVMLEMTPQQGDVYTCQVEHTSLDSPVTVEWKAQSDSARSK

Take Isotype control (antibody): the ECL signal in [1] turned out to be 91 ECL; in assay [2] it was 490 ECL; in assay [3], 603 ECL; in assay [4] it was 335 ECL; in assay [5], 410 ECL; in assay [6], 1470 ECL. The ECL signal in assay [7] came to 2220 ECL; in assay [8], 1030 ECL; in assay [9] it was 1250 ECL; in [10] it was 781 ECL; in [11], 392 ECL; in assay [12] it was 250 ECL. In addition, the ECL signal in [13] was 393 ECL; in assay [14], 613 ECL; in assay [15], 153 ECL; in [16] it was 2780 ECL; in [17] it was 486 ECL.
